Where “and” joins values, the source holds several entries; their conditions need not be identical. Equal entries are not always repeated.
B1: 2109 rat/human chimeric Fab (Fab, V domains shown)
VH: EVQLHQSGAALVKPGASVKLSCKTSGYTFTDNYIHWVKQSPGKSLEWIGYINPSSAYAHYNEKFKTKATLTVDKSTNTAYMELSRLTSEDSATYFCTRRYYSAMPFAYWGQGTLVTVSS
VL: DIVMTQSPASLSASLGETVTIECRASEDIYNGLAWYQQKPGKSPHLLIYNSNTLHTGVPSRFSGTGSGTQYSLKINSLQSEDVATYFCQQNYDFPLTFGSGTKLELKR
B2: CA2109 IgG (recombinant rat/mouse chimeric IgG1) (antibody, V domains shown)
VH: EVQLHQSGAALVKPGASVKLSCKTSGYTFTDNYIHWVKQSPGKSLEWIGYINPSSAYAHYNEKFKTKATLTVDKSTNTAYMELSRLTSEDSATYFCTRRYYSAMPFAYWGQGTLVTVSS
VL: DIVMTQSPASLSASLGETVTIECRASEDIYNGLAWYQQKPGKSPHLLIYNSNTLHTGVPSRFSGTGSGTQYSLKINSLQSEDVATYFCQQNYDFPLTFGSGTKLELK

Key:
[1] = target: cynomolgus TNF (cynomolgus) (UniProt P79337); test: SPR (Biacore T200); Fab captured by anti-human F(ab')2, cynomolgus TNF injected at 3.125 nM
human TNF-alpha [2] = target: T1, human TNF-alpha (human, UniProt P01375 77-233); test: SPR (Biacore T200); Fab captured by anti-human F(ab')2, human TNF injected at 5 nM
T1 sequence (P01375 77-233 limits assumed): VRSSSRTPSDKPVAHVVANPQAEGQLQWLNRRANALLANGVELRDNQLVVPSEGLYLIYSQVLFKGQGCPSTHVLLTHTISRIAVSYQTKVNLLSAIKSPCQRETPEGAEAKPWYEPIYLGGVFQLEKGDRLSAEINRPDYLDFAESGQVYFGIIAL

human TNF-alpha [3] = target: T1, human TNF-alpha; test: cell-based or functional assay
human TNF-alpha [4] = target: T1, human TNF-alpha; test: SPR (Biacore T200); IgG captured by anti-mouse IgG-Fc, human TNF injected at 20 nM

Row | Binder | Kd [1] | koff [1] [s⁻¹] | kon [1] [M⁻¹ s⁻¹] | Kd (human TNF-alpha [2]) | koff (human TNF-alpha [2]) [s⁻¹] | kon (human TNF-alpha [2]) [M⁻¹ s⁻¹] | EC50 (ng/ml), neutralisation in HEK-293-CD40-BLUE reporter assay (human TNF-alpha [3]) [ng/mL] | Kd (human TNF-alpha [4]) [nM] | koff (human TNF-alpha [4]) [s⁻¹] | kon (human TNF-alpha [4]) [M⁻¹ s⁻¹]
1 | B1 | 0.0274 nM and 0.027 nM | 0.000102 | 3.71e+06 | 0.0349 nM and 0.035 nM | 0.000143 | 4.09e+06 |  |  |  | 
2 | B2 |  |  |  |  |  |  | 0.31 | 0.025 | 0.000119 | 4.7e+06

Source: patent US20200291104A1 (UCB, published 2020)
